Measurements taken from patent publication US20240293459A1 (published 2024).

Key:
Assay in all cases: multimer staining
[1] = target: T1, SARS-CoV-2 NSP13 helicase; peptide NSP13-242 peptide on HLA-A*02:01 (human)
T1 peptide: TLVPQEHYV

[2] = target: T2, SARS-CoV-2 NSP13 helicase; peptide NSP13-400 peptide on HLA-A*24:02 (human)
T2 peptide: VYIGDPAQL

[3] = target: SARS-CoV-2 NSP13 helicase; peptide NSP13-448 peptide on HLA-A*01:01 (human)

B1: NSP13-242 TCR (TCR, V domains shown)
Valpha: AQTVTQSQPEMSVQEAETVTLSCTYDTSENNYYLFWYKQPPSRQMILVIRQEAYKQQNATENRFSVNFQKAAKSFSLKISDSQLGDTAMYFCAFMNSNNARLMFGDGTQLVVKP
Vbeta: DAGITQSPRYKITETGRQVTLMCHQTWSHSYMFWYRQDLGHGLRLIYYSAAADITDKGEVPDGYVVSRSKTENFPLTLESATRSQTSVYFCASSPGSVPGGYTFGSGTRLTVV
B1: recognises [1].

B2: NSP13-400 TCR (TCR, V domains shown)
Valpha: RKEVEQDPGPFNVPEGATVAFNCTYSNSASQSFFWYRQDCRKEPKLLMSVYSSGNEDGRFTAQLNRASQYISLLIRDSKLSDSATYLCVVKDSWGKLQFGAGTQVVVTP
Vbeta: DARVTQTPRHKVTEMGQEVTMRCQPILGHNTVFWYRQTMMQGLELLAYFRNRAPLDDSGMPKDRFSAEMPDATLATLKIQPSEPRDSAVYFCASGPSGGWNTIYFGEGSWLTVV
B2: recognises [2].

B3: NSP13-448 TCR (TCR, V domains shown)
Valpha: AQSVTQLGSHVSVSEGALVLLRCNYSSSVPPYLFWYVQYPNQGLQLLLKYTSAATLVKGINGFEAEFKKSETSFHLTKPSAHMSDAAEYFCAVSNSGGGADGLTFGKGTHLIIQP
Vbeta: DGGITQSPKYLFRKEGQNVTLSCEQNLNHDAMYWYRQDPGQGLRLIYYSQIVNDFQKGDIAEGYSVSREKKESFPLTVTSAQKNPTAFYLCASSIMAGGHGELFFGEGSRLTVL
B3: recognises [3].
